Reference: article PMC10783122, “Loss of Bacteroides thetaiotaomicron bile acid-altering enzymes impacts bacterial fitness and the global metabolic transcriptome” (Microbiology Spectrum, 2023)

What was measured:
Test in all cases: purified protein
Format in all cases: biochemical, Bacteroides thetaiotaomicron
Settings in all cases: 5 mM NAD+, 10 mM MOPS, 37 °C, 0.2 nM enzyme
purified protein [1] = substrate: C[C@H](CCC(=O)NCC(=O)O)[C@H]1CC[C@H]2[C@@H]3[C@H](O)C[C@@H]4C[C@H](O)CC[C@]4(C)[C@H]3CC[C@]12C
purified protein [2] = substrate: C[C@H](CCC(=O)NCCS(=O)(=O)O)[C@H]1CC[C@H]2[C@@H]3[C@H](O)C[C@@H]4C[C@H](O)CC[C@]4(C)[C@H]3CC[C@]12C
purified protein [3] = substrate: C[C@H](CCC(=O)O)[C@H]1CC[C@H]2[C@@H]3[C@H](O)C[C@@H]4C[C@H](O)CC[C@]4(C)[C@H]3CC[C@]12C
purified protein [4] = substrate: C[C@H](CCC(=O)O)[C@H]1CC[C@H]2[C@@H]3[C@H](O)C[C@@H]4C[C@H](O)CC[C@]4(C)[C@H]3C[C@H](O)[C@]12C

B1: HSDHa (BT_1911), 7α-hydroxysteroid dehydrogenase (Bacteroides thetaiotaomicron VPI-5482) (protein)
chain: MKRFENKVVVITGAAGGIGEATTRRIVSEGGKVVIADLSQERADKLAAELTQAGADVRPIYFSATELQSCKELVDFAMKEYGQIDVLINNVGGTDPKRDLNIEKLDIDYFDEVFHLNLCCTMYLSQQVIPIMTTHGGGNIVNVASISGLTADANGTLYGASKAGVINLTKYIATQMGKKNIRCNAVAPGLVLTPAALDNLNEEVRNIFLGQCATPYLGEPEDVAATIAFLASNDARYITGQTIVVDGGLTIHNPTVELS
notes: full-length codon-optimized gene, pETite C-His, C-terminal hexahistidine tag, E. coli Rosetta (DE3) pLysS, cobalt resin purified
Q: What does the source list for B1?
A: Km (purified protein [1]): 342.2 ± 104.1 µM; kcat (purified protein [1]): 4090 ± 292 s⁻¹; Km (purified protein [2]): 301.2 ± 60.4 µM; kcat (purified protein [2]): 4520 ± 681 s⁻¹; Km (purified protein [3]): 203.4 ± 24.3 µM; kcat (purified protein [3]): 4580 ± 375 s⁻¹; Km (purified protein [4]): 649.2 ± 167.6 µM; kcat (purified protein [4]): 4070 ± 195 s⁻¹
